B1: Methylmalonic aciduria type A protein, mitochondrial (Homo sapiens), Q8IVH4 (parent)
chain: MPMLLPHPHQHFLKGLLRAPFRCYHFIFHSSTHLGSGIPCAQPFNSLGLHCTKWMLLSDGLKRKLCVQTTLKDHTEGLSDKEQRFVDKLYTGLIQGQRACLAEAITLVESTHSRKKELAQVLLQKVLLYHREQEQSNKGKPLAFRVGLSGPPGAGKSTFIEYFGKMLTERGHKLSVLAVDPSSCTSGGSLLGDKTRMTELSRDMNAYIRPSPTRGTLGGVTRTTNEAILLCEGAGYDIILIETVGVGQSEFAVADMVDMFVLLLPPAGGDELQGIKRGIIEMADLVAVTKSDGDLIVPARRIQAEYVSALKLLRKRSQVWKPKVIRISARSGEGISEMWDKMKDFQDLMLASGELTAKRRKQQKVWMWNLIQESVLEHFRTHPTVREQIPLLEQKVLIGALSPGLAADFLLKAFKSRD
partner: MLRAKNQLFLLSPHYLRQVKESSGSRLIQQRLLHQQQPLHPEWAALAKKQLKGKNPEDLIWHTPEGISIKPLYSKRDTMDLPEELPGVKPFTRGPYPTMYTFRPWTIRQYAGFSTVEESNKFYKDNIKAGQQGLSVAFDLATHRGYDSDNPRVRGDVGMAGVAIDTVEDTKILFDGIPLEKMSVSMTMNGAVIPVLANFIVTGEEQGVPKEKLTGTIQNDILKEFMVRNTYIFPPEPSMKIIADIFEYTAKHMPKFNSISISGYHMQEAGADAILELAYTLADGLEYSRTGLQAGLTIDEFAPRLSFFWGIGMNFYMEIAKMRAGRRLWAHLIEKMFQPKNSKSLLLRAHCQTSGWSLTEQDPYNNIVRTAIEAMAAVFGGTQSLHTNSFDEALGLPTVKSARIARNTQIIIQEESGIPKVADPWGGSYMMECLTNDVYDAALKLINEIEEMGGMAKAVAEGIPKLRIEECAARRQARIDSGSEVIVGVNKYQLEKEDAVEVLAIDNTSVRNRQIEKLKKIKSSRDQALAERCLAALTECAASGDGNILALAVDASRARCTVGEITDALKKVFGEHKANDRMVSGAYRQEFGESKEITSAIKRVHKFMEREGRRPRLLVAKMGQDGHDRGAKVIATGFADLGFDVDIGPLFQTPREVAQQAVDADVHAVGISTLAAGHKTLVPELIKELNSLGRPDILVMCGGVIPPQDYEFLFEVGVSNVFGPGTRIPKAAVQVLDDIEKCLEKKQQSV

Variants of: B1
Conditions: with muta_human MMUT

Variant	effect of a mutation on the interaction
MPMLLPHPHQHFLKGLLRAPFRCYHFIFHSSTHLGSGIPCAQPFNSLGLHCTKWMLLSDGLKRKLCVQTTLKDHTEGLSDKEQRFVDKLYTGLIQGQRACLAEAITLVESTHSRKKELAQVLLQKVLLYHREQEQSNKGKPLAFRVGLSGPPGAGKSTFIEYFGKMLTERGHKLSVLAVDPSSCTSGRSLLGDKTRMTELSRDMNAYIRPSPTRGTLGGVTRTTNEAILLCEGAGYDIILIETVGVGQSEFAVADMVDMFVLLLPPAGGDELQGIKRGIIEMADLVAVTKSDGDLIVPARRIQAEYVSALKLLRKRSQVWKPKVIRISARSGEGISEMWDKMKDFQDLMLASGELTAKRRKQQKVWMWNLIQESVLEHFRTHPTVREQIPLLEQKVLIGALSPGLAADFLLKAFKSRD [G188R]	disrupting interaction strength
MPMLLPHPHQHFLKGLLRAPFRCYHFIFHSSTHLGSGIPCAQPFNSLGLHCTKWMLLSDGLKRKLCVQTTLKDHTEGLSDKEQRFVDKLYTGLIQGQRACLAEAITLVESTHSRKKELAQVLLQKVLLYHREQEQSNKGKPLAFRVELSGPPGAGKSTFIEYFGKMLTERGHKLSVLAVDPSSCTSGGSLLGDKTRMTELSRDMNAYIRPSPTRGTLGGVTRTTNEAILLCEGAGYDIILIETVGVGQSEFAVADMVDMFVLLLPPAGGDELQGIKRGIIEMADLVAVTKSDGDLIVPARRIQAEYVSALKLLRKRSQVWKPKVIRISARSGEGISEMWDKMKDFQDLMLASGELTAKRRKQQKVWMWNLIQESVLEHFRTHPTVREQIPLLEQKVLIGALSPGLAADFLLKAFKSRD [G147E]	disrupting interaction strength
MPMLLPHPHQHFLKGLLRAPFRCYHFIFHSSTHLGSGIPCAQPFNSLGLHCTKWMLLSDGLKRKLCVQTTLKDHTEGLSDKEQRFVDKLYTGLIQGQRACLAEAITLVESTHSRKKELAQVLLQKVLLYHREQEQSNKGKPLAFRVGLSGPPGAGKSTFIEYFGKMLTERGHKLSVLAVDPSSCTSGGSLLGDKTRMTELSRDMNAYIRPSPTRGTLGGVTRTTNEAILLCEGAGYDIILIETVGVGQSEFAVADMVDMFVLLLPPAGGDELQSIKRGIIEMADLVAVTKSDGDLIVPARRIQAEYVSALKLLRKRSQVWKPKVIRISARSGEGISEMWDKMKDFQDLMLASGELTAKRRKQQKVWMWNLIQESVLEHFRTHPTVREQIPLLEQKVLIGALSPGLAADFLLKAFKSRD [G274S]	decreasing interaction strength
MPMLLPHPHQHFLKGLLRAPFRCYHFIFHSSTHLGSGIPCAQPFNSLGLHCTKWMLLSDGLKRKLCVQTTLKDHTEGLSDKEQRFVDKLYTGLIQGQRACLAEAITLVESTHSRKKELAQVLLQKVLLYHREQEQSNKGKPLAFRVGLSGPPGAGKSTFIEYFGKMLTERGHKLSVLAVDPSSCTSGGSLLGDKTRMTELSRDMNAYIRPSPTRGTLGGVTRTTNEAILLCEGAGYDIILIETVGVGQSKFAVADMVDMFVLLLPPAGGDELQGIKRGIIEMADLVAVTKSDGDLIVPARRIQAEYVSALKLLRKRSQVWKPKVIRISARSGEGISEMWDKMKDFQDLMLASGELTAKRRKQQKVWMWNLIQESVLEHFRTHPTVREQIPLLEQKVLIGALSPGLAADFLLKAFKSRD [E250K]	decreasing interaction strength
MPMLLPHPHQHFLKGLLRAPFRCYHFIFHSSTHLGSGIPCAQPFNSLGLHCTKWMLLSDGLKRKLCVQTTLKDHTEGLSDKEQRFVDKLYTGLIQGQRACLAEAITLVESTHSRKKELAQVLLQKVLLYHREQEQSNKGKPLAFRVGLSGPPGAGKSTFIEYFGKMLTERGHKLSVLAVDPSSCTSGGSLLGDKTRMTELSRDMNAYISPSPTRGTLGGVTRTTNEAILLCEGAGYDIILIETVGVGQSEFAVADMVDMFVLLLPPAGGDELQGIKRGIIEMADLVAVTKSDGDLIVPARRIQAEYVSALKLLRKRSQVWKPKVIRISARSGEGISEMWDKMKDFQDLMLASGELTAKRRKQQKVWMWNLIQESVLEHFRTHPTVREQIPLLEQKVLIGALSPGLAADFLLKAFKSRD [R209S]	disrupting interaction strength
MPMLLPHPHQHFLKGLLRAPFRCYHFIFHSSTHLGSGIPCAQPFNSLGLHCTKWMLLSDGLKRKLCVQTTLKDHTEGLSDKEQRFVDKLYTGLIQGQRACLAEAITLVESTHSRKKELAQVLLQKVLLYHREQEQSNKGKPLAFRVGLSGPPGAGKSTFIEYFGKMLTERGHKLSVLAVDPSSCTSGGSLLDDKTRMTELSRDMNAYIRPSPTRGTLGGVTRTTNEAILLCEGAGYDIILIETVGVGQSEFAVADMVDMFVLLLPPAGGDELQGIKRGIIEMADLVAVTKSDGDLIVPARRIQAEYVSALKLLRKRSQVWKPKVIRISARSGEGISEMWDKMKDFQDLMLASGELTAKRRKQQKVWMWNLIQESVLEHFRTHPTVREQIPLLEQKVLIGALSPGLAADFLLKAFKSRD [G192D]	decreasing interaction strength
MPMLLPHPHQHFLKGLLRAPFRCYHFIFHSSTHLGSGIPCAQPFNSLGLHCTKWMLLSDGLKRKLCVQTTLKDHTEGLSDKEQRFVDKLYTGLIQGQRACLAEAITLVESTHSRKKELAQVLLQKVLLYHREQEQSNKGKPLAFRVGLSGPPGAGKSTFIEYFGKMLTERGHKLSVLAVDPSSCTSGGSLLGDKTRMTELSRDMNACIRPSPTRGTLGGVTRTTNEAILLCEGAGYDIILIETVGVGQSEFAVADMVDMFVLLLPPAGGDELQGIKRGIIEMADLVAVTKSDGDLIVPARRIQAEYVSALKLLRKRSQVWKPKVIRISARSGEGISEMWDKMKDFQDLMLASGELTAKRRKQQKVWMWNLIQESVLEHFRTHPTVREQIPLLEQKVLIGALSPGLAADFLLKAFKSRD [Y207C]	disrupting interaction strength
